Experimental data published in article PMC4108184.

How the values were obtained:
purified protein [1] = substrate: O=C1O[C@@H](COP(=O)(O)O)[C@H](O)[C@H]1O; experiment: purified protein; conditions: 2.5 mM Bicine pH 8.3, 0.2 M NaCl, zinc enzyme
purified protein [2] = substrate: O=C1O[C@H](COP(=O)(O)O)[C@H](O)[C@H]1O; experiment: purified protein; conditions: 2.5 mM Bicine pH 8.3, 0.2 M NaCl, zinc enzyme

Row | Protein | Km (purified protein [1]) | Km (purified protein [2]) | kcat (purified protein [2]) | kcat/Km (purified protein [2]) | kcat (purified protein [1]) | kcat/Km (purified protein [1])
1 | Ms0025 (MS53_0025) (Mycoplasmopsis synoviae 53) (protein) MENKFARTVLGDIPVEKLGITDCHDHFIKNGGPEVEEHIDFLMLNVDASIKEFKEFIDRGGSTIVTMDPPNVGRDVLKTLEIANAVKNLGGNVIMSTGFHKAKFYDKYSSWLAVVPTEEIVKMCVAEIEEGMDEYNYNGPVVKRSKAKAGIIKAGTGYGAIDRLELKALEVAARTSILTGCPILVHTQLGTMALEVAKHLIGFGANPDKIQISHLNKNPDKYYYEKVIKETGVTLCFDGPDRVKYYPDSLLAENIKYLVDKGLQKHITLSLDAGRILYQRNYGLTKGKQTFGLAYLFDRFLPLLKQVGVSKEAIFDILVNNPKRVLAFDEKRNFDPLKVSKEVLELKKELNLN | 300 ± 20 µM | 500 ± 40 µM | 23.4 ± 0.8 s⁻¹ | 47000 ± 4000 M⁻¹ s⁻¹ | – | –
2 | Mag6390 (MAG_6390) (Mycoplasmopsis agalactiae PG2) (protein) MAKDKFVRTVLGDVPAESIGITDCHDHLIKNGGPEMHEHPDFLMIDVEAAKKEVQEYVDHGGKTIVTMDPPNVGRDVYRMLEIAEAFKGKANIVMSTGFHKAAFYDKYSSWLACVPTDDIVKMMVAEVEEGMDEYNYNGPVVKRSKAKAGIIKAGTGYAAIDRLELKALEVAARTSITTGCPILVHTQLGTMALEVAQHLIGFGANPRKIQLSHLNKNPDRYYYEKIIKETGVTICFDGPDRVKYYPDSLLADHIKYLVDKGLQKHITLSLDAGRILYQRNYGLTKGKETFGLSYLFERFIPLLKQVGVSQEAIDDILINNPREILAFDEPRVYDASKVSSEVVQLKKDLKLL | 660 ± 60 µM | 900 ± 100 µM | – | – | 8.7 ± 0.3 s⁻¹ | 13000 ± 1000 M⁻¹ s⁻¹
